Source: EP2605788B1

What was measured:
Test in all cases: cell-based or functional assay
CD20 (human) = CD20 (human) (UniProt P11836)
CD74 (human) = CD74 (human) (UniProt P04233)
CD22 (human) = CD22 (human) (UniProt P20273)

CD20 (human), sequence (P11836 whole entry): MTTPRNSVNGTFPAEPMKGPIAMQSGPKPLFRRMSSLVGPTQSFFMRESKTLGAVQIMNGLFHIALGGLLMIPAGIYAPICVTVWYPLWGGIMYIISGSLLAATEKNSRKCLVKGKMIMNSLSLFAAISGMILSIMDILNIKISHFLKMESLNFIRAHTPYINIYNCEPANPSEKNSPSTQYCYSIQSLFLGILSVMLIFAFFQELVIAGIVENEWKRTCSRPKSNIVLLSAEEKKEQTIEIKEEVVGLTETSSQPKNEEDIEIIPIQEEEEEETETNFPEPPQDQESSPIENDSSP
CD74 (human), sequence (P04233 whole entry): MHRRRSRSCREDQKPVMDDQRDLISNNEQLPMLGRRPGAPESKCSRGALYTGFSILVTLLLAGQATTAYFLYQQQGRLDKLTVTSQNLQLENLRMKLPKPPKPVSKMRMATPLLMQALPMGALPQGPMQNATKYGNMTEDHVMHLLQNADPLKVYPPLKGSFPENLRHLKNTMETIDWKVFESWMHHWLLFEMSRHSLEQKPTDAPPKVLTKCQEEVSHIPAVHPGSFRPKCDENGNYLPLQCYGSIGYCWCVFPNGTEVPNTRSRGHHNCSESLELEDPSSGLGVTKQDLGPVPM

homotypic adhesion (%), JeKo-1, 10 nM, 2 h (CD20 (human)) | homotypic adhesion (%), JeKo-1, 10 nM, 24 h (CD20 (human)) | EC50, MTS assay, CLL (WAC, MEC-1), ALL (REH-1, MN60) and MM (CAG, RPMI8226, KMS11, KMS12-BM, KMS12-PE) lines (CD74 (human)) | homotypic adhesion (%), JeKo-1, 10 nM, 2 h (CD74 (human)) | homotypic adhesion (%), JeKo-1, 10 nM, 24 h (CD74 (human)) | Substance | EC50, in vitro cytotoxicity, Daudi and Ramos (CD20 (human)) | EC50, in vitro cytotoxicity, Jeko-1 (CD20 (human)) | fold more potent than 22-Rap, in vitro cytotoxicity, Jeko-1 (CD20 (human)) | in vitro cytotoxicity, NHL cell lines (CD20 (human)) | in vitro cytotoxicity, NHL cell lines (CD22 (human))
90% | > 95% | > 100 nM | 90% | > 95% | 20-(74)-(74) (bispecific antibody) | – | – | – | – | –
– | – | – | – | – | 20-Rap | 0.1 nM | 0.02 nM | 25 fold | > 1 nM | –
– | – | – | – | – | 22-Rap | – | – | – | – | > 1 nM
90% | > 95% | > 100 nM | 90% | > 95% | 74-(20)-(20) (bispecific antibody) | – | – | – | – | –
